Results: patent US20210301020A1 (Amgen, published 2021)
Changes are numbered by the printed parent chain.

B1: anti-LILRB1 antibody 30A10 (antibody, V domains shown)
VH: QVQLVESGGGVVQPGRSLRLSCAASGFTFSSYAMHWVRQAPGKGLEWVAIIWFDGSQRYYADSVKGRFTISRDNSRDTLYLQMNSLRAEDTAVYYCARDELTGFDYWGQGTLVTVSS
VL: DIQMTQSPSSLSASVGDRVTISCRASQNIINFLNWYQQKPGKAPKVLIDAASSLRSGVPSRFSGSGSETDFSLTISSLQPEDFATYYCQQSFSTPLTFGGGTKVEIRR
notes: Fully human antibody from XENOMOUSE mice, tested as hybridoma supernatant
B2: anti-LILRB1 antibody 3C1 (antibody, human IgG4, lambda, V domains shown)
VH: EVQLVESGGGLVQPGGSLRLSCAASGFTFSDYDMHWVRQATGKGLEWVATIDTAGDTYYPDSVRGRFTISRENAKNSLSLQMNSLRAGDTAVYFCARDVPGTGFDHWGQGTLVTVSS
VL: SSELTQDPAVSVALGQTVRITCQGDSLRSYYESWYQQKPGQAPVLVIYGKNNRPSGIPDRFSGSISGNTASLTITGTQAEDEADYYCNSRDNSGDHWVFGGGTRLTVLG
notes: Fully human antibody from XENOMOUSE XMG4-K/XMG4-KL mice, tested as hybridoma supernatant
B3: anti-LILRB1 antibody 19D6 (antibody, V domains shown)
VH: EVQLVESGGGLVQPGESLRLSCAASGFTFSDYDMHWVRQATGKGLEWVSAIDTAGDTYYLGPVKGRFTISRENAKNSLFLHMNSLRVGDTAVYYCIRDSGSSFDYWGQGTLVTVSS
VL: B2 VL with S1T, S29N, I65S, T73I, N88M, N92S, D95N, R104K, L105V
notes: as for B1

Experiments:
[1] = molecular target: human LILRB1 expressed on cells (Jurkat reporter cells; primary human cells; human CD8+ T cells) (human) (UniProt Q8NHL6); assay: flow cytometry, control on LILRB1 expressed by primary human cells
[2] = molecular target: human LILRB1 expressed on cells (Jurkat reporter cells; primary human cells; human CD8+ T cells) (human) (UniProt Q8NHL6); assay: flow cytometry, hybridoma supernatant on LILRB1 expressed by primary human cells
[3] = molecular target: human LILRB1 expressed on cells (Jurkat reporter cells; primary human cells; human CD8+ T cells) (human) (UniProt Q8NHL6); assay: cell-based or functional assay
[4] = molecular target: T1, Recombinant human LILRB1 (R&D Systems) (human, UniProt Q8NHL6 24-458, limits assumed); assay: BLI, ForteBio Octet HTX, antibody captured by anti-human Fc on SA sensors, soluble LILRB1 as analyte, 25 C, 1:1 model
T1 construct: Soluble analyte in the Octet assay
Experimental: Affinity was measured on ForteBio Octet HTX (Molecular Devices) using SA biosensors (cat 18-5010) using assay buffer comprised of 10 mM Tris, 0.1% TritonX, 150 mM NaCl, 1 mM CaCl₂), 1 mg/mL BSA, pH 7.4. Assay was conducted at 25° C. and 1:1 model was used to fit the curves. Biotinylated goat anti-human Fc at 0.75 ug/mL was captured on SA sensors and antibodies as unpurified but quantified hybridoma supernatant were loaded on the sensor at 2 ug/mL for 600 seconds. Recombinant human LILRB1 (R&D Systems) titrated 1:2 from 25 nM was allowed to bind for 5 minutes, then dissociation was measured for 20 minutes.

T1 sequence (Q8NHL6 24-458 limits assumed): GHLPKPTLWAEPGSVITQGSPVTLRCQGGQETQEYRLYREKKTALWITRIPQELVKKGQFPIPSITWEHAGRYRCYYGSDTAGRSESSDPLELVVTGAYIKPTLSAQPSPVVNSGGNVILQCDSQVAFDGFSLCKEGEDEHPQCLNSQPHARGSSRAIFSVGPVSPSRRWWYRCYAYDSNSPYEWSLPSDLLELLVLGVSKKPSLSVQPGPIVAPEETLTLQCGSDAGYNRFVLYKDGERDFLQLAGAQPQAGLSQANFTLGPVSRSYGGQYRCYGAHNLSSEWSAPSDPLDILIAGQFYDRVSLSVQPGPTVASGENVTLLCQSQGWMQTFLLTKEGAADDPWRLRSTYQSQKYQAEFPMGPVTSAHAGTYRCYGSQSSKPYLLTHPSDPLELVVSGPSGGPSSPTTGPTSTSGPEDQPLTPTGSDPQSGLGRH

| Molecule | FACS GeoMean test 2 [1] | FACS GeoMean, test 1 [1] | FACS GeoMean test 2 [2] | Potency (nM), n = 1 [3] | Potency (nM), n = 2 [3] | Kd [4] | koff [4] | kon [4] | FACS GeoMean, test 1 [2] |
| --- | --- | --- | --- | --- | --- | --- | --- | --- | --- |
| Isotype control (Table 2) (antibody) | 359 | 73 | – | – | – | – | – | – | – |
| B1 | – | – | 2540 | 0.062 nM | 0.042 nM | 0.103 nM | 0.00012 s⁻¹ | 1.17e+06 M⁻¹ s⁻¹ | – |
| B2 | – | – | – | 0.04 nM | 0.024 nM | 0.168 nM | 0.000247 s⁻¹ | 1.47e+06 M⁻¹ s⁻¹ | 1750 |
| B3 | – | – | 2540 | 0.084 nM | 0.095 nM | 0.176 nM | 0.000206 s⁻¹ | 1.17e+06 M⁻¹ s⁻¹ | – |
